From patent US20230183713A1, “SITE-SPECIFIC RECOMBINASES FOR EFFICIENT AND SPECIFIC GENOME EDITING” (TECHNISCHE UNIVERSITÄt DRESDEN, published 2023)

How the values were obtained:
[1] = target: T1, Cre recombinase monomer with Q311R mutation
T1 chain: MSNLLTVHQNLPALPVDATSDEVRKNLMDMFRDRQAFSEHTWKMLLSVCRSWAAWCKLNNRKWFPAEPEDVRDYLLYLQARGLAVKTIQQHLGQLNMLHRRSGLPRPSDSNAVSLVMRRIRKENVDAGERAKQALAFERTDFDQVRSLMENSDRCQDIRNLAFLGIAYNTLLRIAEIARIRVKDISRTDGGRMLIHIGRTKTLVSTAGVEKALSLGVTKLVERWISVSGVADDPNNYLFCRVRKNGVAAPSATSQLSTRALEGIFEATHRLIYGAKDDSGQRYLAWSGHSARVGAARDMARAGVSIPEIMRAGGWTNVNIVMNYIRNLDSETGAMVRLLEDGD

[2] = target: T2, Cre recombinase monomer with Y324L mutation
T2 chain: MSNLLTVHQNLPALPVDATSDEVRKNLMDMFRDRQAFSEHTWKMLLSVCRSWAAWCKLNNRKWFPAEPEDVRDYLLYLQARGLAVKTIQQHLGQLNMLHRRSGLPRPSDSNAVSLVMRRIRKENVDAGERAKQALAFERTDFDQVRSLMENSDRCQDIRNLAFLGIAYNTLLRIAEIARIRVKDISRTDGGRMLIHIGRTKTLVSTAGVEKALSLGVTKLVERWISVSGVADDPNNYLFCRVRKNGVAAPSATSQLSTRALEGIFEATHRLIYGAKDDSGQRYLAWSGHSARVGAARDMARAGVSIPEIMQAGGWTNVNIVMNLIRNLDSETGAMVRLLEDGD

[3] = target: T3, Cre recombinase monomer with Y324K mutation
T3 chain: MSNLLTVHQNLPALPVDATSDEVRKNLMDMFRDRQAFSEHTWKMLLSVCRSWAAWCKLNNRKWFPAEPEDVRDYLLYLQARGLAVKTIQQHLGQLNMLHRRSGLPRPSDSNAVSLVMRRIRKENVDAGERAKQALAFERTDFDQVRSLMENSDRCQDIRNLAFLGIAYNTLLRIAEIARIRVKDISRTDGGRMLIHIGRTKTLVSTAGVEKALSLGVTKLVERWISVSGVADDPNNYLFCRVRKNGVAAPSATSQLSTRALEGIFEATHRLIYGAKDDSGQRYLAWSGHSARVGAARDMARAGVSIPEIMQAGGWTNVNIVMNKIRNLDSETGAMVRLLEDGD

[4] = target: T4, Cre recombinase monomer with W315T mutation
T4 chain: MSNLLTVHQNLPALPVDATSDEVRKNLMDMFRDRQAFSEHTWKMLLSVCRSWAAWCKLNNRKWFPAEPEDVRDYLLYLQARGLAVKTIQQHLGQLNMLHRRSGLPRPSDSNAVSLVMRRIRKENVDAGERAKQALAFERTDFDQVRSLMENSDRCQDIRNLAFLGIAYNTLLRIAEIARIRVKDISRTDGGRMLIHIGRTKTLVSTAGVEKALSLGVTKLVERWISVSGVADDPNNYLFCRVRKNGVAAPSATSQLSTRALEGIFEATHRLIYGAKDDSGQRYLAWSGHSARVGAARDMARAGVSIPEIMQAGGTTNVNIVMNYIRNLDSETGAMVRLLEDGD

[5] = target: T5, Cre recombinase monomer with E176H mutation
T5 chain: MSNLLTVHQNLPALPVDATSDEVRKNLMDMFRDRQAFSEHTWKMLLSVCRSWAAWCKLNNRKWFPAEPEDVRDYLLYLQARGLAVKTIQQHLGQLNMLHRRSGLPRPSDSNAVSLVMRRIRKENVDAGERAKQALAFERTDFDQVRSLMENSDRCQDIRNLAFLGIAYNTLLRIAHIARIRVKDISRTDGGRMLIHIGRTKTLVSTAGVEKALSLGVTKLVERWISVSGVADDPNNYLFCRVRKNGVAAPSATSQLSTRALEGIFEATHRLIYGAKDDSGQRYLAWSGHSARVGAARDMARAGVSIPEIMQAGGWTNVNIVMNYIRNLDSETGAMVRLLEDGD

[6] = target: T6, Cre recombinase monomer with E176I mutation
T6 chain: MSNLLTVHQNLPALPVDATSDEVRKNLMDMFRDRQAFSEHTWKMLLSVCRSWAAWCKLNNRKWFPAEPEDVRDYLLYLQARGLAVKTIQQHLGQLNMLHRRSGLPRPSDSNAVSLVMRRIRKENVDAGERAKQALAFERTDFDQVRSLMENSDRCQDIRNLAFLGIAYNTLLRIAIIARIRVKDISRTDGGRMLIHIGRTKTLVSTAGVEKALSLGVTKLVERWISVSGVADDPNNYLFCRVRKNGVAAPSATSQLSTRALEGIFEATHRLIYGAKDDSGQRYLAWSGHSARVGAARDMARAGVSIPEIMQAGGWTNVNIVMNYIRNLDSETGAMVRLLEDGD

[7] = target: T7, Cre recombinase monomer with E176V mutation
T7 chain: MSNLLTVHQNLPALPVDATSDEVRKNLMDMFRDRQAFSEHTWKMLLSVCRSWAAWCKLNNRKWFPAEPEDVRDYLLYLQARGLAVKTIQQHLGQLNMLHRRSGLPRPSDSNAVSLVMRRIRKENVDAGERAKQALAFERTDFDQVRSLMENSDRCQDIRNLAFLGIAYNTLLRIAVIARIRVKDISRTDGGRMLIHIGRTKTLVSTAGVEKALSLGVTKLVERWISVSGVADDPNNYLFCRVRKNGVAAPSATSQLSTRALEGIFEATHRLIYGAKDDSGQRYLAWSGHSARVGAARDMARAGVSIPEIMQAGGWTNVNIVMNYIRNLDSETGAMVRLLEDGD

[8] = target: T8, Cre recombinase monomer with E176M mutation
T8 chain: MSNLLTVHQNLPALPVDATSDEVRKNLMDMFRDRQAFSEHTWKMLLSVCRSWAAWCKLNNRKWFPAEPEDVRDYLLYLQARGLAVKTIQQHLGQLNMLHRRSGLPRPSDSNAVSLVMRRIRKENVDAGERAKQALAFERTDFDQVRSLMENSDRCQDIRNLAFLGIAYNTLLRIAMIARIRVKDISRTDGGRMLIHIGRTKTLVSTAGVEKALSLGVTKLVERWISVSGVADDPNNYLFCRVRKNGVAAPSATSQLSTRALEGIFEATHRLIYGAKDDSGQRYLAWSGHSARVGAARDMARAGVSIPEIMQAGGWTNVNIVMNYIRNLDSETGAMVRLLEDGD

B1: Cre recombinase monomer with K201P mutation (protein)
chain: MSNLLTVHQNLPALPVDATSDEVRKNLMDMFRDRQAFSEHTWKMLLSVCRSWAAWCKLNNRKWFPAEPEDVRDYLLYLQARGLAVKTIQQHLGQLNMLHRRSGLPRPSDSNAVSLVMRRIRKENVDAGERAKQALAFERTDFDQVRSLMENSDRCQDIRNLAFLGIAYNTLLRIAEIARIRVKDISRTDGGRMLIHIGRTPTLVSTAGVEKALSLGVTKLVERWISVSGVADDPNNYLFCRVRKNGVAAPSATSQLSTRALEGIFEATHRLIYGAKDDSGQRYLAWSGHSARVGAARDMARAGVSIPEIMQAGGWTNVNIVMNYIRNLDSETGAMVRLLEDGD
[1]
  Median dimer activity (recombination on loxP): 95%
[2]
  Median dimer activity (recombination on loxP): 59%

B2: Cre recombinase monomer with R292T mutation (protein)
chain: MSNLLTVHQNLPALPVDATSDEVRKNLMDMFRDRQAFSEHTWKMLLSVCRSWAAWCKLNNRKWFPAEPEDVRDYLLYLQARGLAVKTIQQHLGQLNMLHRRSGLPRPSDSNAVSLVMRRIRKENVDAGERAKQALAFERTDFDQVRSLMENSDRCQDIRNLAFLGIAYNTLLRIAEIARIRVKDISRTDGGRMLIHIGRTKTLVSTAGVEKALSLGVTKLVERWISVSGVADDPNNYLFCRVRKNGVAAPSATSQLSTRALEGIFEATHRLIYGAKDDSGQRYLAWSGHSATVGAARDMARAGVSIPEIMQAGGWTNVNIVMNYIRNLDSETGAMVRLLEDGD
[1]
  Median dimer activity (recombination on loxP): 94%
[3]
  Median dimer activity (recombination on loxP): 55%

B3: Cre recombinase monomer with W315L mutation (protein)
chain: MSNLLTVHQNLPALPVDATSDEVRKNLMDMFRDRQAFSEHTWKMLLSVCRSWAAWCKLNNRKWFPAEPEDVRDYLLYLQARGLAVKTIQQHLGQLNMLHRRSGLPRPSDSNAVSLVMRRIRKENVDAGERAKQALAFERTDFDQVRSLMENSDRCQDIRNLAFLGIAYNTLLRIAEIARIRVKDISRTDGGRMLIHIGRTKTLVSTAGVEKALSLGVTKLVERWISVSGVADDPNNYLFCRVRKNGVAAPSATSQLSTRALEGIFEATHRLIYGAKDDSGQRYLAWSGHSARVGAARDMARAGVSIPEIMQAGGLTNVNIVMNYIRNLDSETGAMVRLLEDGD
[4]
  Median dimer activity (recombination on loxP): 50%

B4: Cre recombinase monomer with R173I mutation (protein)
chain: MSNLLTVHQNLPALPVDATSDEVRKNLMDMFRDRQAFSEHTWKMLLSVCRSWAAWCKLNNRKWFPAEPEDVRDYLLYLQARGLAVKTIQQHLGQLNMLHRRSGLPRPSDSNAVSLVMRRIRKENVDAGERAKQALAFERTDFDQVRSLMENSDRCQDIRNLAFLGIAYNTLLIIAEIARIRVKDISRTDGGRMLIHIGRTKTLVSTAGVEKALSLGVTKLVERWISVSGVADDPNNYLFCRVRKNGVAAPSATSQLSTRALEGIFEATHRLIYGAKDDSGQRYLAWSGHSARVGAARDMARAGVSIPEIMQAGGWTNVNIVMNYIRNLDSETGAMVRLLEDGD
[5]
  Median dimer activity (recombination on loxP): 42%
[6]
  Median dimer activity (recombination on loxP): 40%
[7]
  Median dimer activity (recombination on loxP): 44%
[1]
  Median dimer activity (recombination on loxP): 93%

B5: Cre recombinase monomer with W315K mutation (protein)
chain: MSNLLTVHQNLPALPVDATSDEVRKNLMDMFRDRQAFSEHTWKMLLSVCRSWAAWCKLNNRKWFPAEPEDVRDYLLYLQARGLAVKTIQQHLGQLNMLHRRSGLPRPSDSNAVSLVMRRIRKENVDAGERAKQALAFERTDFDQVRSLMENSDRCQDIRNLAFLGIAYNTLLRIAEIARIRVKDISRTDGGRMLIHIGRTKTLVSTAGVEKALSLGVTKLVERWISVSGVADDPNNYLFCRVRKNGVAAPSATSQLSTRALEGIFEATHRLIYGAKDDSGQRYLAWSGHSARVGAARDMARAGVSIPEIMQAGGKTNVNIVMNYIRNLDSETGAMVRLLEDGD
[3]
  Median dimer activity (recombination on loxP): 99%

B6: Cre recombinase monomer with R173Q mutation (protein)
chain: MSNLLTVHQNLPALPVDATSDEVRKNLMDMFRDRQAFSEHTWKMLLSVCRSWAAWCKLNNRKWFPAEPEDVRDYLLYLQARGLAVKTIQQHLGQLNMLHRRSGLPRPSDSNAVSLVMRRIRKENVDAGERAKQALAFERTDFDQVRSLMENSDRCQDIRNLAFLGIAYNTLLQIAEIARIRVKDISRTDGGRMLIHIGRTKTLVSTAGVEKALSLGVTKLVERWISVSGVADDPNNYLFCRVRKNGVAAPSATSQLSTRALEGIFEATHRLIYGAKDDSGQRYLAWSGHSARVGAARDMARAGVSIPEIMQAGGWTNVNIVMNYIRNLDSETGAMVRLLEDGD
[8]
  Median dimer activity (recombination on loxP): 32%
[1]
  Median dimer activity (recombination on loxP): 92%

B7: Cre recombinase monomer with W315M mutation (protein)
chain: MSNLLTVHQNLPALPVDATSDEVRKNLMDMFRDRQAFSEHTWKMLLSVCRSWAAWCKLNNRKWFPAEPEDVRDYLLYLQARGLAVKTIQQHLGQLNMLHRRSGLPRPSDSNAVSLVMRRIRKENVDAGERAKQALAFERTDFDQVRSLMENSDRCQDIRNLAFLGIAYNTLLRIAEIARIRVKDISRTDGGRMLIHIGRTKTLVSTAGVEKALSLGVTKLVERWISVSGVADDPNNYLFCRVRKNGVAAPSATSQLSTRALEGIFEATHRLIYGAKDDSGQRYLAWSGHSARVGAARDMARAGVSIPEIMQAGGMTNVNIVMNYIRNLDSETGAMVRLLEDGD
[2]
  Median dimer activity (recombination on loxP): 71%

B8: Cre recombinase monomer with R173C mutation (protein)
chain: MSNLLTVHQNLPALPVDATSDEVRKNLMDMFRDRQAFSEHTWKMLLSVCRSWAAWCKLNNRKWFPAEPEDVRDYLLYLQARGLAVKTIQQHLGQLNMLHRRSGLPRPSDSNAVSLVMRRIRKENVDAGERAKQALAFERTDFDQVRSLMENSDRCQDIRNLAFLGIAYNTLLCIAEIARIRVKDISRTDGGRMLIHIGRTKTLVSTAGVEKALSLGVTKLVERWISVSGVADDPNNYLFCRVRKNGVAAPSATSQLSTRALEGIFEATHRLIYGAKDDSGQRYLAWSGHSARVGAARDMARAGVSIPEIMQAGGWTNVNIVMNYIRNLDSETGAMVRLLEDGD
[5]
  Median dimer activity (recombination on loxP): 65%
[8]
  Median dimer activity (recombination on loxP): 27%
[1]
  Median dimer activity (recombination on loxP): 91%
